{"source": "patent US20130330346A1", "about": "(Novartis, published 2013)", "binders": {"B1": {"name": "163E3 (VHH)", "VHH": "EVQLVESGGGLVQPGGSLRLSCVASGRIFSSNAMGWFRQAPGKEREFVAAITWRSGGSAYYADSAKGRFTISRDNAKNTVYLQMNSLKPEDTAVYYCAAGGSSWLSFPPDYWGQGTQVTVSS", "notes": "Tested as periplasmic extract (pAX50) and as purified His6-tagged protein (pAX100); also called 163E03; not shown: C-terminal c-myc tag and His6 tag coded by the vector"}, "B2": {"name": "CXCR20076 (VHH)", "VHH": "B1 VHH with V5L, V23A, A65V, A76S, K88R, Q117L", "notes": "also called RD-HBC794; MAb 794"}}, "key": {"Human CXCR2 [1]": {"target": "T1, Human CXCR2 (human, UniProt P25025 1-360)", "T1 sequence": "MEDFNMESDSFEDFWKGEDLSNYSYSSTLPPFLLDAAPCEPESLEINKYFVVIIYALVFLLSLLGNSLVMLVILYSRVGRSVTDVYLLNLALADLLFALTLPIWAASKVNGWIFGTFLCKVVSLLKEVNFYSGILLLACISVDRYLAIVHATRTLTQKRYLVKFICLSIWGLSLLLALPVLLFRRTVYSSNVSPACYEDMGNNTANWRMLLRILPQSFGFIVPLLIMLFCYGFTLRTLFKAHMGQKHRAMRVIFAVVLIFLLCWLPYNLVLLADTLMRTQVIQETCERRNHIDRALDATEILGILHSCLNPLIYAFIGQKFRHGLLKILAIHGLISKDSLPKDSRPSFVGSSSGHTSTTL", "test": "cell-based or functional assay"}, "Cynomolgus CXCR2 [2]": {"target": "T2, Cynomolgus CXCR2 (cynomolgus, UniProt Q28519 3-353 (rhesus entry))", "T2 chain": "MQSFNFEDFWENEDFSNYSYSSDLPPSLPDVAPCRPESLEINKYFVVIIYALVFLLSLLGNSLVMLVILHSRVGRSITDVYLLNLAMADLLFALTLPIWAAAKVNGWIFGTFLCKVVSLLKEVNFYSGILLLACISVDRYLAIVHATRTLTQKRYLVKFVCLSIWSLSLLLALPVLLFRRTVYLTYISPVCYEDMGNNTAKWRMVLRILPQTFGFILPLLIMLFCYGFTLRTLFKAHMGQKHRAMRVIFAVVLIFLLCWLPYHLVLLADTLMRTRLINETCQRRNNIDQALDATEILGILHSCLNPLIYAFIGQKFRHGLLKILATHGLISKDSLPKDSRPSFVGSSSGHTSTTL", "test": "cell-based or functional assay"}, "Human CXCR2 [3]": {"target": "T1, Human CXCR2", "test": "cell-based or functional assay", "remark": "listed apart in the source"}, "Cynomolgus CXCR2 [4]": {"target": "T2, Cynomolgus CXCR2", "test": "cell-based or functional assay"}, "Human CXCR2 [5]": {"target": "T1, Human CXCR2", "test": "cell-based or functional assay", "remark": "listed apart in the source"}, "Human CXCR2 [6]": {"target": "T1, Human CXCR2", "test": "cell-based or functional assay", "remark": "listed apart in the source"}, "Cynomolgus CXCR2 [7]": {"target": "T2, Cynomolgus CXCR2", "test": "cell-based or functional assay"}, "Human CXCR2 [8]": {"target": "T1, Human CXCR2", "test": "FACS hGro-α competition"}, "Cynomolgus CXCR2 [9]": {"target": "T2, Cynomolgus CXCR2", "test": "FACS hGro-α competition"}, "Human 1to19 peptide [10]": {"target": "T3, Human 1to19 peptide (human)", "T3 construct": "First 19 N-terminal amino acids of human CXCR2, captured on neutravidin; also called human CXCR2 1 to19 peptide; 1-19 Nter peptide", "T3 peptide": "MEDFNMESDSFEDFWKGED-biotin", "test": "peptide ELISA of Table 8 (ratio 0.6)"}, "Human CXCR2 [11]": {"target": "T1, Human CXCR2", "test": "FACS competition vs 3 nM FMAT-Blue Gro-α", "experimental": "(§1) Purified monovalent anti-CXCR2Nanobodies were titrated against 3 nM FMAT-Blue-labeled Gro-α in the FACS ligand competition assay on human and cynomolgus CXCR2 (Table 10). On human CXCR2, blocking potencies range between double digit nM and sub-nM whereas on cynomolgus CXCR2, they range between single and double digit nM."}, "Cynomolgus CXCR2 [12]": {"target": "T2, Cynomolgus CXCR2", "test": "FACS competition vs 3 nM FMAT-Blue Gro-α", "experimental": "as §1"}, "Human CXCR2 [13]": {"target": "T1, Human CXCR2", "test": "FACS, periplasmic extract vs FMAT Blue Gro-α", "summary_of_the_method": "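Cells (2×10⁵) preincubated 30 min at 4 °C with ½-diluted periplasmic extracts in PBS/10% FBS. An equal volume of 6 nM FMAT Blue-labelled human Gro-α was then added for another 30 min at 4 °C in the dark. After washing, dead cells were excluded with propidium iodide and binding read by flow cytometry.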"}, "Human 1to19 peptide [14]": {"target": "T3, Human 1to19 peptide", "test": "ELISA, periplasmic extract on biotinylated peptide", "summary_of_the_method": "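Neutravidin-coated, casein-blocked plates captured 100 nM biotinylated human 1–19 peptide; 10-fold dilutions of periplasmic Nanobody extracts bound 1 h. Detection via mouse anti-myc then anti-mouse-HRP; value is ratio of binding signal over an irrelevant control Nanobody.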"}, "Human CXCR2 [15]": {"target": "T1, Human CXCR2", "test": "immunoluminescence, HEK-293T with wild type receptor, 2.0 ug/ml, anti-myc detection"}}, "note": "Residue numbers refer to the chain shown, from its start. Ends that are not written are not given here."}
{"binder": "B1", "values": [{"measurement": "FLIPR % inhibition max", "setting": "Human CXCR2 [1]", "value": 100, "unit": "%"}, {"measurement": "FLIPR IC50 (GRO-α induced calcium release)", "setting": "Human CXCR2 [1]", "value": 44.3, "unit": "nM"}, {"measurement": "[35S]GTPγS % inhibition max (GRO-α)", "setting": "Human CXCR2 [1]", "value": 100, "unit": "%"}, {"measurement": "[35S]GTPγS IC50 (GRO-α)", "setting": "Human CXCR2 [1]", "value": 64.7, "unit": "nM"}, {"measurement": "FLIPR % inhibition max", "setting": "Cynomolgus CXCR2 [2]", "value": 100, "unit": "%"}, {"measurement": "FLIPR IC50 (GRO-α induced calcium release)", "setting": "Cynomolgus CXCR2 [2]", "value": 158, "unit": "nM"}, {"measurement": "Human Chemotaxis IC50 (GROα)", "setting": "Human CXCR2 [3]", "value": 9.3, "unit": "nM"}, {"measurement": "Human WBSC IC50 (rhGROα)", "setting": "Human CXCR2 [3]", "value": 9.4, "unit": "nM"}, {"measurement": "Cynomologus WBSC IC50 (rhGROα)", "setting": "Cynomolgus CXCR2 [4]", "value": "> 100", "unit": "nM"}, {"measurement": "IC50 (M) at 5 nM GROα (inhibition of GRO-α, FIG. 2)", "setting": "Human CXCR2 [5]", "value": "3.03e-08", "unit": "M"}, {"measurement": "IC50 (M) at 15 nM GROα (inhibition of GRO-α, FIG. 2)", "setting": "Human CXCR2 [5]", "value": "4.04e-08", "unit": "M"}, {"measurement": "IC50 (M) at 45 nM GROα (inhibition of GRO-α, FIG. 2)", "setting": "Human CXCR2 [5]", "value": "7.54e-08", "unit": "M"}, {"measurement": "IC50 (M) at 150 nM GROα (inhibition of GRO-α, FIG. 2)", "setting": "Human CXCR2 [5]", "value": "1.87e-07", "unit": "M"}, {"measurement": "FLIPR hGro-α IC50", "setting": "Human CXCR2 [6]", "value": 35, "unit": "nM"}, {"measurement": "FLIPR hGro-α IC50", "setting": "Cynomolgus CXCR2 [7]", "value": 150, "unit": "nM"}, {"measurement": "IC50", "setting": "Human CXCR2 [8]", "value": 10, "unit": "nM"}, {"measurement": "IC50", "setting": "Cynomolgus CXCR2 [9]", "value": 22, "unit": "nM"}, {"measurement": "binding result", "setting": "Human 1to19 peptide [10]", "value": "no binding"}, {"measurement": "% inhibition of max", "setting": "Human CXCR2 [11]", "value": 92.4, "unit": "%"}, {"measurement": "IC50", "setting": "Human CXCR2 [11]", "value": 8.96, "unit": "nM"}, {"measurement": "% inhibition of max", "setting": "Cynomolgus CXCR2 [12]", "value": 83.5, "unit": "%"}, {"measurement": "IC50", "setting": "Cynomolgus CXCR2 [12]", "value": 14.8, "unit": "nM"}, {"measurement": "FACS Gro-α competition (% inhibition)", "setting": "Human CXCR2 [13]", "value": 80.1, "unit": "%"}, {"measurement": "ratio of binding signal relative to blank control", "setting": "Human 1to19 peptide [14]", "value": 0.6, "unit": "ratio"}]}
{"binder": "B2", "values": [{"measurement": "FLIPR hGro-α IC50", "setting": "Human CXCR2 [6]", "value": 31, "unit": "nM"}, {"measurement": "FLIPR hGro-α IC50", "setting": "Cynomolgus CXCR2 [7]", "value": 100, "unit": "nM"}, {"measurement": "IC50", "setting": "Human CXCR2 [8]", "value": 16, "unit": "nM"}, {"measurement": "IC50", "setting": "Cynomolgus CXCR2 [9]", "value": 25, "unit": "nM"}, {"measurement": "Signal:Background", "setting": "Human CXCR2 [15]", "value": 20, "unit": "ratio"}]}
